Holding throughout (type): cell-based, Escherichia coli
In one data set the test system is TonB. Nature of the data set: Proteinase K accessibility assay in spheroplasts. The conditions noted are these: wild-type W3110 spheroplasts; pmf collapsed; 60 μM CCCP or 10 mM DNP. The text has this:
Proteinase K accessibility assays. For reversibility assays, spheroplasts were generated from wild-type cells (W3110) and treated with CCCP to collapse pmf. […] Samples were harvested and treated with proteinase K or left untreated. […] To re-establish pmf for the remaining sample, the proteinase K untreated, CCCP-treated spheroplasts were subsequently pelleted, washed, and resuspended in buffer without CCCP. These washed spheroplasts were divided in half. One sample was re-treated with CCCP, and one was treated with solvent only (DMSO). Both were then treated with proteinase K. As a control, whole cells were also treated with proteinase K or left untreated. All manipulations occurred at 4° C.
For standard assays, spheroplasts were prepared and treated with proteinase K as described previously (Larsen et al, 1999, Mol. Microbiol. 31, 1809-1824). The effect of protonophores was examined after treatment of spheroplasts with 60 μM carbonylcyanide-m-chlorophenylhydrazone (CCCP) or 10 mM DNP compared to an equal volume of solvent only, dimethyl sulfoxide (DMSO). After limited proteolysis, TCA precipitated samples were visualized on immunblots of 11% or 15% SDS polyacrylamide gels with TonB-specific monoclonal antibodies or ExbD-specific polyclonal antibodies, respectively. All manipulations occurred at 4° C.

For a further data set, the system named is TonB-ExbD complex. Nature of the data set: Formaldehyde crosslinking in spheroplasts. The conditions noted are these: CCCP-treated W3110 spheroplasts, 60 μM. How it is done: Formaldehyde crosslinking in spheroplasts. Spheroplasts were prepared as above for standard assays and treated with DMSO solvent or 60 μM CCCP. A CCCP-treated sample was also treated with proteinase K for 15 min as described above. For formaldehyde crosslinking, spheroplasts were pelleted and resuspended in 100 mM sodium phosphate buffer, pH 6.8 containing 0.25M sucrose and 2 mM MgSO4. For CCCP-treated spheroplasts, CCCP was maintained in the crosslinking buffer. Samples were treated with 1% monomeric paraformaldehyde (inverting to mix) for 15 min at room temperature. Pellets were solubilized at 60° C. in Laemmli sample buffer.

The test system of data set [1] is ferrichrome-mediated iron transport. Nature of the data set: [55Fe]-ferrichrome uptake, ExbD cys substitutions, with or without CuoP treatment. The conditions noted are these: 0.03 mM CuoP, cells in unsupplemented 1xM9.
Data set [2] shares this test system. The description is as above. How it is done: Since CuoP treatment catalyzed almost 100% dimer formation for some of the cys substitutions, attempts were made to determine activity of the dimeric form. […] The amount of CuoP was reduced 10-fold to 0.03 mM and cells had to be suspended in fully supplemented M9 medium as described in Experimental Procedures.
Activity assays. Initial rates of [^55Fe]-ferrichrome uptake were determined. For assays where cultures were treated with copper-(1,10-phenanthroline)3, harvested cells were pelleted, resuspended in 1×M9 supplemented as described above (no sodium propionate added), and treated with an equal volume 0.06 mM CuoP ([final] 0.03 mM) or 0.5 mM sodium phosphate buffer, pH 7.4 (buffer only) for 5 min, at 37° C. with aeration. Cells were pelleted, and the standard iron transport protocol was followed starting with resuspension in the assay medium.
In all assays the CuoP solution was removed and assays carried out in identical media, but the medium present during the 5 min CuoP treatment was important and differentially affected activity of a wild-type strain.

Data set [3] has as its system 55Fe-ferrichrome transport. Nature of the data set: Transport of 55Fe-loaded ferrichrome (ExbD deletion variants). How it is done: For assays in 1×M9, 37 μM Fe (proteinase K accessibility, [^55Fe]-ferrichrome uptake, formaldehyde crosslinking, and sucrose density gradient fractionation), the following percentages of arabinose were added at subculture to induce expression of ExbD variants near native levels of ExbD: pKP660=no inducer, pKP761=0.0008%, pKP760=0.0008%, pKP759=0.3% glucose (to repress basal levels of overexpression), pKP758=0.002% glucose (to repress basal levels of overexpression), pKP762=0.0006%, pKP757=0.0007%, pKP756=0.006%, pKP755=0.008%, pKP754=0.15%, pKP753=0.18%, pKP752=0.2%, pKP763=0.18%, pKP764=0.2%, pKP724=0.006%.
Activity assays: Spot titer assays were performed. Initial rates of [^55Fe]-ferrichrome uptake were determined.

Where [4] appears, read: CuoP-treated (0.03 mM, 5 min, supplemented M9).

`N#CC(C#N)=NNc1cccc(Cl)c1` [CCCP, carbonylcyanide-m-chlorophenylhydrazone]: the “TonB conformation (proteinase K sensitivity) after protonophore treatment” value in the data set with TonB was “detection of the previously observed proteinase K resistant conformation of TonB”. Moreover, in the data set with TonB-ExbD complex, the “TonB-ExbD formaldehyde crosslinked complex” value is listed as “not detected”.

Consider `O=[N+]([O-])c1ccc(O)c([N+](=O)[O-])c1` [DNP], for which the “TonB conformation (proteinase K sensitivity) after protonophore treatment” value with TonB is recorded as “Identical results”.

For the molecule “copper-(1,10-phenanthroline)3 [CuoP, reference compound]”, the “iron transport of a wild-type strain remaining after CuoP treatment” value in data set [1] is recorded as “about 25%”. In addition, the “effect on iron transport activity of a wild-type strain” value in data set [2] (0.03 mM CuoP in supplemented 1xM9) is listed as “did not inhibit activity”.

B1: ExbD Y112C: ExbD cysteine substitution Y112C (pKP1020) (protein)
chain: MAMHLNENLDDNGEMHDINVTPFIDVMLVLLIIFMVAAPLAIVDVKVNLPASTSTPQPRPEKPVYLSVKADNSMFIGNDPVTDETMITALNALTEGKKDITIFFRADKTVDCETLMKVMDTLHQAGYLKIGLVGEETAKAK
Consider B1, for which the results for the “activity: iron transport relative to wild-type ExbD” value in data set [2] (setting [4]), in data set [2] (buffer only treated samples) and in data set [2] (overexpressed ExbD cys substitution) were 5%, “about 90%” and 90%, respectively.

B2: ExbD M116C: ExbD cysteine substitution M116C (pKP1024) (protein)
chain: MAMHLNENLDDNGEMHDINVTPFIDVMLVLLIIFMVAAPLAIVDVKVNLPASTSTPQPRPEKPVYLSVKADNSMFIGNDPVTDETMITALNALTEGKKDITIFFRADKTVDYETLCKVMDTLHQAGYLKIGLVGEETAKAK
Turning to B2, the results for the “activity: iron transport relative to wild-type ExbD” value in data set [2] (setting [4]) and in data set [2] (buffer only treated samples) were 20% and “about 90%”, respectively.

B3: ExbD: wild-type E. coli ExbD protein, plasmid-encoded (pKP1194, exbD in pBAD24) (protein, listed as Escherichia coli)
chain: MAMHLNENLDDNGEMHDINVTPFIDVMLVLLIIFMVAAPLAIVDVKVNLPASTSTPQPRPEKPVYLSVKADNSMFIGNDPVTDETMITALNALTEGKKDITIFFRADKTVDYETLMKVMDTLHQAGYLKIGLVGEETAKAK
Consider B3, for which the “Initial Rate of Transport” value in data set [3] (55Fe-loaded ferrichrome, plasmid-encoded ExbD variant in strain KP1522) came out at 672.2 ± 15.97. For the same molecule, the “% Wild-type Activity” value in data set [3] (initial rate of variant strain divided by initial rate of wild-type strain x 100, strain KP1522) came out at 100%.

Source of the values: patent US20120208744A1, “ANTI-MICROBIAL AGENTS AND COMPOSITIONS AND METHODS OF PRODUCTION AND USE THEREOF” (The Penn State Research Foundation, priority 2011, published 2012).
